US20250326814A1 (OPKO BIOLOGICS, published 2025)
Non-standard residues stand in square brackets, D forms with d. No end group written: not given here. *: point of attachment. X2 = Eicosanedioic‑γGlu‑(AEEA)2‑Lys(Ac)‑Gly, CC(=O)NCCCC[C@H](NC(=O)COCCOCCNC(=O)COCCOCCNC(=O)CC[C@H](NC(=O)CCCCCCCCCCCCCCCCCCC(=O)O)C(=O)O)C(=O)NCC(=O)*; Aib = CC(C)(N)C(=O)O

Tests used:
Assay in all cases: cell-based or functional assay
[1] = target: glucagon-like peptide-1 receptor (GLP-1R)
[2] = target: glucagon-like peptide-1 receptor (GLP-1R); remark: listed apart in the source
glucagon receptor (GCGR) [3] = target: glucagon receptor (GCGR)
[4] = target: glucagon-like peptide-1 receptor (GLP-1R); remark: listed apart in the source
glucagon receptor (GCGR) [5] = target: glucagon receptor (GCGR); remark: listed apart in the source
[6] = target: glucagon-like peptide-1 receptor (GLP-1R); remark: listed apart in the source
glucagon receptor (GCGR) [7] = target: glucagon receptor (GCGR); remark: listed apart in the source

H[Aib]QGTFTSDYSKYLDSKKAQEFVQWLLN[Aib]GRNRNNIAC-NH2 (not fully specified (residue 38)) [Variant 2 (Formula XV)]
EC50 (nM), GLP-1 activity [1]: 0.1 nM

H[Aib]QGTFTSDYSKYLDSKKAQEFVQWLLN[Aib]GRNRNNIAC(X2)-NH2 [OPK-88604 (modified OXM of Formula XIV)]
EC50 (nM) GLP-1R, GLP-1 activity in vitro [2]: 0.0159 nM
EC50 (nM) GCGR, glucagon activity in vitro (glucagon receptor (GCGR) [3]): 0.164 nM
EC50 (nM), GLP-1 activity [1]: 0.09 nM

H[Aib]QGTFTSDYSKYLDSKKAQEFVQWLLN[Aib]GRNRNNIAC(Eicosanedioic‑γGlu‑Glu‑(AEEA)3‑Lys(Ac)‑Gly)-NH2 [Variant 3 (Formula XVI)]
EC50 (nM), GLP-1 activity [1]: 0.15 nM

B1: OPK-88003 FA mono conjugate (modified OXM of Formula XXII or Formula XXIII; in Table 9 a mixture of both) (peptide)
peptide: HXQGTFTSDYSKYLDSKKAQEFVQWLLNXGRNRNNIACC
modifications: Aib at positions 2 and 29; one Eicosanedioic-gGlu-Glu-AEEA-AEEA-AEEA-Lys(Ac-)-Gly-OH binder on Cys38 (Formula XXII, SEQ ID NO: 47) or on Cys39 (Formula XXIII, SEQ ID NO: 48); C-terminal amide (backbone C^38C^39-NH2)
% EC50 compare to KPI (GLP1), with HSA added (FA-conjugate + HSA) [4]: 8.9%
% EC50 compare to KPI (GLP1), without HSA [4]: 100%
Activity fold reduction compared to OPK-88003 KPI (GLP1), with HSA added (FA-conjugate + HSA) [4]: 11.2 fold
EC50 [nM] GLP1, CBA potency assay, with HSA added (FA-conjugate + HSA) [4]: 2.27 nM
EC50 [nM] GLP1, CBA potency assay, without HSA [4]: 0.2 nM
% EC50 compare to KPI (GCGR), with HSA added (FA-conjugate + HSA) (glucagon receptor (GCGR) [5]): 2.6%
% EC50 compare to KPI (GCGR), without HSA (glucagon receptor (GCGR) [5]): 45%
Activity fold reduction compared to OPK-88003 KPI (GCGR), with HSA added (FA-conjugate + HSA) (glucagon receptor (GCGR) [5]): 38.6 fold
Activity fold reduction compared to OPK-88003 KPI (GCGR), without HSA (glucagon receptor (GCGR) [5]): 2.2 fold
EC50 [nM] GCGR, CBA potency assay, with HSA added (FA-conjugate + HSA) (glucagon receptor (GCGR) [5]): 52.9 nM
EC50 [nM] GCGR, CBA potency assay, without HSA (glucagon receptor (GCGR) [5]): 3.04 nM
EC50 (nM), GLP-1 activity [1]: 0.21 nM
% EC50 compare to KPI (GLP1) [6]: 60%
Activity fold reduction compared to OPK-88003 KPI (GLP1) [6]: 1.65 fold
EC50 [nM] GLP1, CBA potency assay [6]: 0.21 nM
% EC50 compare to KPI (GCGR) (glucagon receptor (GCGR) [7]): 38%
Activity fold reduction compared to OPK-88003 KPI (GCGR) (glucagon receptor (GCGR) [7]): 2.65 fold
EC50 [nM] GCGR, CBA potency assay (glucagon receptor (GCGR) [7]): 1.6 nM

B2: MOD-604 KPI (mutated OXM analog of any one of SEQ ID NOs: 5 to 7) (peptide)
peptide: HXQGTFTSDYSKYLDSKKAQEFVQWLLNXGRNRNNIAC
HELM: PEPTIDE1{H.[Aib].Q.G.T.F.T.S.D.Y.S.K.Y.L.D.S.K.K.A.Q.E.F.V.Q.W.L.L.N.[Aib].G.R.N.R.N.N.I.A.C.[am]}$$$$V2.0; N-terminus assumed
SMILES: CC[C@H](C)[C@H](NC(=O)[C@H](CC(N)=O)NC(=O)[C@H](CC(N)=O)NC(=O)[C@H](CCCNC(=N)N)NC(=O)[C@H](CC(N)=O)NC(=O)[C@H](CCCNC(=N)N)NC(=O)CNC(=O)C(C)(C)NC(=O)[C@H](CC(N)=O)NC(=O)[C@H](CC(C)C)NC(=O)[C@H](CC(C)C)NC(=O)[C@H](Cc1c[nH]c2ccccc12)NC(=O)[C@H](CCC(N)=O)NC(=O)[C@@H](NC(=O)[C@H](Cc1ccccc1)NC(=O)[C@H](CCC(=O)O)NC(=O)[C@H](CCC(N)=O)NC(=O)[C@H](C)NC(=O)[C@H](CCCCN)NC(=O)[C@H](CCCCN)NC(=O)[C@H](CO)NC(=O)[C@H](CC(=O)O)NC(=O)[C@H](CC(C)C)NC(=O)[C@H](Cc1ccc(O)cc1)NC(=O)[C@H](CCCCN)NC(=O)[C@H](CO)NC(=O)[C@H](Cc1ccc(O)cc1)NC(=O)[C@H](CC(=O)O)NC(=O)[C@H](CO)NC(=O)[C@@H](NC(=O)[C@H](Cc1ccccc1)NC(=O)[C@@H](NC(=O)CNC(=O)[C@H](CCC(N)=O)NC(=O)C(C)(C)NC(=O)[C@@H](N)Cc1c[nH]cn1)[C@@H](C)O)[C@@H](C)O)C(C)C)C(=O)N[C@@H](C)C(=O)N[C@@H](CS)C(N)=O
EC50 (nM), GLP-1 activity [1]: 0.13 nM
% EC50 compare to KPI (GLP1) [6]: 45%
Activity fold reduction compared to OPK-88003 KPI (GLP1) [6]: 2.2 fold
EC50 [nM] GLP1, CBA potency assay [6]: 0.282 nM
% EC50 compare to KPI (GCGR) (glucagon receptor (GCGR) [7]): 72%
Activity fold reduction compared to OPK-88003 KPI (GCGR) (glucagon receptor (GCGR) [7]): 1.4 fold
EC50 [nM] GCGR, CBA potency assay (glucagon receptor (GCGR) [7]): 0.83 nM
